Values quoted from earlier work as cited in publication PMC7585440.

Legend:
LRP6 E1E2 (Homo sapiens) = LRP6 E1E2 (Homo sapiens) (UniProt O75581); assay: biolayer interferometry
LRP6 E1 (Homo sapiens) = LRP6 E1 (Homo sapiens) (UniProt O75581); assay: ITC
LRP6 E1 (Homo sapiens), sequence (O75581 20-326): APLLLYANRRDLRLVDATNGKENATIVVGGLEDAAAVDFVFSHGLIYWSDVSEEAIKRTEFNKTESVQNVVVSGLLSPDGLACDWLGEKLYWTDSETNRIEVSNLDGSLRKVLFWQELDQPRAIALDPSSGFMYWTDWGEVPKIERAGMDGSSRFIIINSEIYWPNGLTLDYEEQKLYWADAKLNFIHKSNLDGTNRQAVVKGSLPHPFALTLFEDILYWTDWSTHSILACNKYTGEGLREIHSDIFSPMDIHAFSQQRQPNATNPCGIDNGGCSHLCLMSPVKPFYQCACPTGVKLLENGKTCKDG

SOST loop 2 peptide loop 2, sequence (Q9BQB4 110-130): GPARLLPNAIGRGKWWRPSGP
SOST, sequence (Q9BQB4 24-213): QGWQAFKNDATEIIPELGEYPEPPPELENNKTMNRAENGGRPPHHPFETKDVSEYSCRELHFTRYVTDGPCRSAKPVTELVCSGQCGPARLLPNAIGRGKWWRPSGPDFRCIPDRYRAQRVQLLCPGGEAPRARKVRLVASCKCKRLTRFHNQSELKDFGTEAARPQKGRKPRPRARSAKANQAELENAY
LRP6 E1E2 (Homo sapiens), sequence (O75581 20-630): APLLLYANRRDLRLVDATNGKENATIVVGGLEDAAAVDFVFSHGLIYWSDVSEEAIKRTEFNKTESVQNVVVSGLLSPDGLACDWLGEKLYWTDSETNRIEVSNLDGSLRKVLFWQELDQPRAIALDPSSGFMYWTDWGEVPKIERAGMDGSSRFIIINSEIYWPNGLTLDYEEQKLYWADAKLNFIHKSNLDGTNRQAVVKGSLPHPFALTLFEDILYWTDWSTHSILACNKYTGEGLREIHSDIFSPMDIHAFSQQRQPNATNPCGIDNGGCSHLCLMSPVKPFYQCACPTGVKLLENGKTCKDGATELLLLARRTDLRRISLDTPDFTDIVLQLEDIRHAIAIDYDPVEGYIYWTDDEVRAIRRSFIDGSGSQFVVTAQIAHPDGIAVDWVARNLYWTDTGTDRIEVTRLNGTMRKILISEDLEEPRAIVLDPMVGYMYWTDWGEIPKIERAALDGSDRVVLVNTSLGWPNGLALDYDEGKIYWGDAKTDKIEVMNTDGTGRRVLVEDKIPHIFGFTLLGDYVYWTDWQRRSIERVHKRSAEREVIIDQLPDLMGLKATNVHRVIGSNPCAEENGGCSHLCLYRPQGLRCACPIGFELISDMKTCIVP

Row | Kd (LRP6 E1E2 (Homo sapiens)) [µM] | Kd (LRP6 E1 (Homo sapiens)) [µM] | Substance
1 | 0.0068 | – | SOST (from UniProt Q9BQB4)
2 | – | 9 | SOST loop 2 peptide loop 2 (from UniProt Q9BQB4)
